From the supplement of paper PMC9170038

System: MS2 coat protein
Experiment: apparent KD of MS2 coat protein; designed switch direction (-1 OFF switch, 1 ON switch): -1; higher = weaker reporter binding
Outline: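 The reported apparent KD is a per-design median over clusters, from curve fits of normalised cluster fluorescence. Protein titrations used SNAP-549-labelled MS2 coat protein, doubled from 0.7 or 1.5 nM to 3 µM, in Tris-HCl pH 7.5 buffer with KCl, MgCl2, BSA, DTT, tRNA and Tween-20, with no input, 200 uM small-molecule ligand, or an oligonucleotide input. The RNA switches were transcribed on Illumina chips by stalled E. coli RNA polymerase.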

[1] = input ligand: microRNA oligo, concentration not stated
[2] = Eterna round: R95, input ligand: microRNA oligo, concentration not stated
[3] = Eterna round: R95, input ligand: FMN 200 uM
[4] = Eterna round: R95, input ligand: none

Sequence	apparent KD of MS2 coat protein (input ligand: FMN 200 uM) [nM]	apparent KD of MS2 coat protein (input ligand: none) [nM]	apparent KD of MS2 coat protein [1] [nM]	apparent KD of MS2 coat protein [2] [nM]	apparent KD of MS2 coat protein [3] [nM]	apparent KD of MS2 coat protein [4] [nM]
GAUUGAGAGCAGGAUAUAUUCCUGAUGUAUGAAGUAGAAGGGCUCACAUGAGGAUCACCCAUGUGAUCCUGAAU [JL Dibri mod 17 mod] (Eterna round: R97, puzzle: Exclusion 6)	15.3	14.3				
GCAACGCUGAAAGGAUAUGUUGACCGAGAGACAACAGAAGGUUCCGCACAUGAGGAUCACCCAUGUGAUCGUAAAAGAGCAAGC [Eternabot solution 18] (Eterna round: R96, puzzle: Exclusion NG 1)	99.5	48.1	35.9			
GCAAGCUUAAUCACUAUGAACAUGAGGAUCACCCAUGUAUAAGGUAAUACUUUUGGGCCCUUUAUUACUCGUCUUAU [JR_STOV1_Sub030] (Eterna round: R97, puzzle: Sensor, turn-off variant 1)	61.3	80.3				
GCAAGCUUAAUCUGUAUGAACAUGAGGAUCACCCAUGUAUAAGGUAAUUCUUUUGGGUUUUUUAUUGCUCGUCUUAU [JR_STOV1_Sub025] (Eterna round: R97, puzzle: Sensor, turn-off variant 1)	189	210				
GCAAGCUUUAUCACUAUGAACAUGAGGAUCACCCAUGUAUAAGGUAUUACUUUUGGGCCCUUUAGUGCUCGUCUUAU [JR_STOV1_Sub032] (Eterna round: R97, puzzle: Sensor, turn-off variant 1)	29.8	29.3				
GCAAGCUUUUUCAAUAAGAACAUGAGGAUCACCCAUGUUUAAGGUAUUACUUUUGGGCUCUUUAGUGCUCGUCUUAU [JR_STOV1_Sub035] (Eterna round: R97, puzzle: Sensor, turn-off variant 1)	17.9	18.2				
GCACAGGCAGGAUAUACAUGAGGAUCACCCAUGUGAUCCCUUAGGUACAAAAGUACUAGUAGAAGGGCCUGUGC [Omei Ex3 Model Bachelor's Dilema v49] (Eterna round: R97, puzzle: Exclusion 3)	403	1040				
GCACCACGAGGAUAUACAUGAGGAUCACCCAUGUGAUCAGCAGUCCUCGGACUGCAAUGUAGAAGGCGUGGUGC [E3/1-A1] (Eterna round: R97, puzzle: Exclusion 3)	24.3	776				
GCACGAAGUGUAGGAUAUCUGUGCGAUUAGCUCAGAGAAGGACACAUGAGGAUCACCCAUGUUUUCCGCGGAAGCAAUACGUGC [Eli exng1 - 058] (Eterna round: R96, puzzle: Exclusion NG 1)	26.5	17.9	13.2			
GCACGGAGUGUAGGAUAUCUGUGCGAUUAGCUCAGAGAAGGACACAUGAGGAUCACCCAUGUGUAACUCAAUACUCAUCCGUGC [Eli exng1 - 070] (Eterna round: R96, puzzle: Exclusion NG 1)	8.06	13.9	9.18			
GCACGGAGUGUAGGAUAUCUGUGCGAUUAGCUCAGAGAAGGACACAUGAGGAUCACCCAUGUGUAUCAACACAAUAAUCCGUGC [Eli exng1 - 071] (Eterna round: R96, puzzle: Exclusion NG 1)	14.8	14.5	13.1			
GCACGGAGUGUAGGAUAUUAGUGCGAUUAGCACUGAGAAGGACAUGAGGAUCACCCAUGUGCUACCUCAAUUAGCCUUCCGUGC [Eli exng1 - 035] (Eterna round: R96, puzzle: Exclusion NG 1)	21.8	19.7	16.5			
GCACGGAGUGUAGGAUAUUAGUGCGAUUAGCACUGAGAAGGACAUGAGGAUCACCCAUGUUCCUCAAUAACUCACCUUCCGUGC [Eli exng1 - 043] (Eterna round: R96, puzzle: Exclusion NG 1)	9.73	11.5	10.6			
GCACGGUGAGGAUAUAUAAAUGGGCAUGUCGAGAACCGUUCACAUGAGGAUCACCCAUGUAGAAGGCGCCUGUG [Eternabot (L2) Solution 58] (Eterna round: R97, puzzle: Exclusion 2)	115	49				
GCACGGUUGGUAGGAUAUCAUUGCGAUUAGCUAUGAGAAGGACCACAUGAGGAUCACCCAUGUCCUCUAAUUAGCCUGCCGUGC [Eli exng1 - 014] (Eterna round: R96, puzzle: Exclusion NG 1)			118			
GCAGAUCACGUGAGGAUAUCGUCUACCUCGGUAGUCGAGAAGGCACAUGAGGAUCACCCAUGUGAGUGAUCUGC [Omei Ex4B B2] (Eterna round: R97, puzzle: Brourd's mod of Exclusion 4)	13.6	17.6				

Sequence	apparent KD of MS2 coat protein (input ligand: FMN 200 uM) [nM]	apparent KD of MS2 coat protein (input ligand: none) [nM]	apparent KD of MS2 coat protein [1] [nM]	apparent KD of MS2 coat protein [2] [nM]	apparent KD of MS2 coat protein [3] [nM]	apparent KD of MS2 coat protein [4] [nM]
GCAGCAAUCUCAAUUAAAACCACAUGAGGAUCACCCAUGUCUCAGGAUAUGGUCUGGAUUACAGGCCAGAAGGGAGAAAGCUGC [Eli exng3 - 053] (Eterna round: R96, puzzle: Exclusion NG 3)	13.5	13	10.2			
GCAGCACAUGUAGGAUAUCUGCACGUGUAGUGCAGAGAAGGACAUGAGGAUCACCCAUGUAAUUAAGAUCAAUUAUUAAGCUGC [ENG1/3-C3] (Eterna round: R96, puzzle: Exclusion NG 1)	519	49.1	42.4			
GCAGCAUAGAUGAAAAUCUGAUACAUGAGGAUCACCCAUGUACAGGAUAUGGUCUGGAUUACAGGCCAGAAGGGUACAAGCUGC [Eli exng3 - 012] (Eterna round: R96, puzzle: Exclusion NG 3)	15.7	12.1	10.4			
GCAGCAUAGUCCAAAUAGGACAUACAUGAGGAUCACCCAUGUCAGGAUAUGGUCUGGAUUACAGGCCAGAAGGGACAAAGCUGC [Eli exng3 - 001] (Eterna round: R96, puzzle: Exclusion NG 3)	30.4	27.9	22.3			
GCAGCGUAUGUAGGAUAUCGGUCAGUUUCUGAUCGAGAAGGACAUGAGGAUCACCCAUGUUAAGUCAUGCGUGAGCAUGGCUGC [JL ENG1 3.72] (Eterna round: R96, puzzle: Exclusion NG 1)	317	31.4	23.8			
GCAGCUAAUGCAGGAUAUCAGCACGAUUAGUGCUGAGAAGGGCACAUGAGGAUCACCCAUGUGAUCAAUUAAUAUUAAUGCUGC [ENG1/11-B1] (Eterna round: R96, puzzle: Exclusion NG 1)	184	25.1	24			
GCAGCUAGUUCAGGAUAUCAGCACGUGUAGUGCUGAGAAGGGAACAUGAGGAUCACCCAUGUGAUCAAUGCUGCAAUUUUAAUU [ENG1/12-A3] (Eterna round: R96, puzzle: Exclusion NG 1)	780	2260	461			
GCAGGAUAAGUGAGGAUAUACCUAUGGAUACAUAGGUAGAAGGUACAUGAGGAUCACCCAUGUUCCUCACCUGC [Fiskers BMX 4 - 64] (puzzle: Brourd's mod of Exclusion 4)				10.1		
GCAGGAUAAGUGAGGAUAUACCUCUGGAUACAGAGGUAGAAGGCACAUGAGGAUCACCCAUGUCUAUCACCUGC [Fiskers BMX 4 - 78] (puzzle: Brourd's mod of Exclusion 4)				14.5		
GCAGGCGUCUUGGCUCGUCUUAUUUGGAGAGGAUUGAUAACAUGAGGAUCACCCAUGUGUGUGGGAGAGUUGCAGUG [JR_SV3TOV2_Sub017] (puzzle: Sensor v3, turn-off variant 2)				203	293	374
GCAGGUUAAGUCAGGAUAUACCUAUGGAUACAUAGGUAGAAGGGACAUGAGGAUCACCCAUGUUUCUCAUCUGC [Mod of Eli 2 - Jieux - Brourd's mod of Exclusion 4] (Eterna round: R97, puzzle: Brourd's mod of Exclusion 4)	61.5	21.7				
GCAGUAUGAGUUAGGAUAUGAUGAUUUAAAAUAAAUCAGAAGGAACUUGAGGAUCACCCAAGUAAAGAAUUGGU [JR_BMEx4_Sub071] (Eterna round: R97, puzzle: Brourd's mod of Exclusion 4)	25.3	22.1				
GCAGUGCGAGGAUAUACAUGAGGAUCACCCAUGUGAGAGAAAUAAGUGAGGAAGAAAAGUAGAAGGCGCGUUGG [Mat - Exclusion 3 - Mod of Salish D69] (puzzle: Exclusion 3)				40.8	95.2	69.1
GCAUCCAAUGUGAGGAUAUACCUCUGGAUACAUAGGUAGAAGGCACAUGAGGAUCACCCAUGUUCCAAGGAUGC [Fiskers BMX 4 - 30] (puzzle: Brourd's mod of Exclusion 4)				65	183	82
GCAUGUUGGUAGGAUAUGCAGCGAAAACCGCUAGUAGAAGGAUUGACAUGAGGAUCACCCAUGUGAACCGAAGG [Esesbece] (Eterna round: R97, puzzle: Exclusion 6)	139	36.6				
GCCAGAGCAGGAUAUCUAUAUUAUCACAUGAGGAUCACCCAUGUCCAGCGAAAGCUGGAGGGAGAAGGGCUCUGGC [Fiskers Ex 5 - 26] (Eterna round: R96, puzzle: Exclusion 5)	51	104	60.9			
